Test results as given in the supplement of paper PMC9170038.

Test system: MS2 coat protein
Assay: apparent KD of MS2 coat protein; designed switch direction (-1 OFF switch, 1 ON switch): -1; higher = weaker reporter binding
Method in brief: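 The reported apparent KD is a per-design median over clusters, from curve fits of normalised cluster fluorescence. Protein titrations used SNAP-549-labelled MS2 coat protein, doubled from 0.7 or 1.5 nM to 3 µM, in Tris-HCl pH 7.5 buffer with KCl, MgCl2, BSA, DTT, tRNA and Tween-20, with no input, 200 uM small-molecule ligand, or an oligonucleotide input. The RNA switches were transcribed on Illumina chips by stalled E. coli RNA polymerase.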

[1] = input ligand: microRNA oligo, concentration not stated
[2] = Eterna round: R95, input ligand: microRNA oligo, concentration not stated
[3] = Eterna round: R95, input ligand: FMN 200 uM
[4] = Eterna round: R95, input ligand: none

Sequence	apparent KD of MS2 coat protein (input ligand: FMN 200 uM) [nM]	apparent KD of MS2 coat protein [1] [nM]	apparent KD of MS2 coat protein (input ligand: none) [nM]	also measured
AAGACUAGAGGAUAUACAUGAGGAUCACCCAUGUAACUGUCAGGUGACUGACGGAAAUGUAGAAGGCUAGUCAA [Mat - Exclusion 3 - JL mod - D81] (Eterna round: R96, puzzle: Exclusion 3)	54.2	13.6	16.8	
GUCGUGCGGCUUUGCUGUGCGGGUGCAUGAGGAUCACCCAUGUAGGAUAUGGUACGCUUUGCGUGCCAGAAGGGCGUGCGUUGG [salish99_ExNG3_r04_009] (Eterna round: R96, puzzle: Exclusion NG 3)	154	114	110	
CUGGGUCGUGUUAGGAUAUGCUCUAGAAAGUUAGGGUAGAAGGAACAUGAGGAUCACCCAUGUGACUUCACUAG [BmEX4 B.27] (Eterna round: R97, puzzle: Brourd's mod of Exclusion 4)	23.6		15.4	
AGGGUGGGAGGAUAUCCAAUAUAUGACAUGAGGAUCACCCAUGUUUCCACUCGUACCUCCGGAGAAGGCCCUCCCA [Ex5 #22] (Eterna round: R97, puzzle: Exclusion 5)	21.5		22.1	
UAUUAUAAUGUAGGAUAUCUGCACGUUUAGUGCAGAGAAGGACAUGAGGAUCACCCAUGUAUAGUAGCUUCGGCUACAUUAUUU [ENG1-B2] (Eterna round: R96, puzzle: Exclusion NG 1)	103	52.2	68.9	
GGCCUGUUAGGAUAUUAGUAGUAGUCAGAAAAGACUAUUACUGAGAAGGAACAUGAGGAUCACCCAUGUUGGCC [Mat - Exclusion 4 - Eli Mod - D39] (Eterna round: R97, puzzle: Exclusion 4)	17.2		17.4	
GGUGAAGCAGGAUAUGUGCUGGCAUACAUGAGGAUCACCCAUGUCAUGUAGGAACCACGUAUAGAAGGGCUUCACC [Exclusion 5 (FMN-MS2 slide v.10)] (Eterna round: R97, puzzle: Exclusion 5)	50.7		28.1	
UUCCUCGUUGUGAGGAUAUCGUCCUAUUUUUGUUACGAGAAGGCACAUGAGGAUCACCCAUGUUACUUGAUGUU [JR_BMOE4_Sub071] (puzzle: Brourd's mod of Exclusion 4)				apparent KD of MS2 coat protein [2]: 21.2 nM
AACUCACAUGAGGAUCACCCAUGUGAGGAUAUGAUACUAUGUACUUCGGUACAUAGUAUCAGAAGGCAUGUGGG [Ex1-3: 94] (puzzle: Exclusion 1)				apparent KD of MS2 coat protein [2]: 49.7 nM
GUAAAGUGAGGAUAUGGUAAUUUAAUUAUUAAUUAAUUAAUCCAGAAGGCACAUGAGGAUCACCCAUGUAAAUG [Mat - Exclusion 4 - D90] (puzzle: Exclusion 4)				apparent KD of MS2 coat protein [2]: 31.6 nM
UAAAUGUGAGGAUAUCAGGUGUGCUAGCAUACUGGUACAUCUGAGAAGGCACAUGAGGAUCACCCAUGUUCCUU [Mat - Exclusion 4 - Mod of JL - D52] (puzzle: Exclusion 4)				apparent KD of MS2 coat protein [2]: 16.7 nM
UGAUCUAGCGGAGGAUAUACAUGAGGAUCACCCAUGUAUAGUCUAUGACCGUAGUCGUGGAACGUGUAGAAGGCCGCUAGAUCU [JL ENG2 3.78] (Eterna round: R96, puzzle: Exclusion NG 2)	18.4	10.2	14.4	
ACGCCAGGAGGAUAUGCAAUAAGUAACAUGAGGAUCACCCAUGUUCGGGCGAUGCUCGUGGCAGAAGGCCUAGCCG [Edteonra] (Eterna round: R97, puzzle: Exclusion 5)	329		36.1	
CGCCUACAUGAGGAUCACCCAUGUGAGGAUAUCCUGCGAGGAUCAAAAGAUCCUCGUGGGAGAAGGCGCCUGGA [Omei Ex1 B6] (Eterna round: R97, puzzle: Exclusion 1)	37.6		13.1	
UCAGUUCUGCAAGGAUAUCGUCCUAGUUUGGUUCGAGAAGGUGCUUUUGUUUUUUCUUUGUGUUGACAUGAGGAUCACCCAUGU [JR_ExcNG1_Sub053] (Eterna round: R96, puzzle: Exclusion NG 1)	20.7	13.8	27.1	
UCGACGUCGUCAGGAUAUAGUCUUAAUGUCAUGCUUUUGUUCGUACAUGAGGAUCACCCAUGUGGCUAGAAGGGACUAAAGUUU [JR_ExcNG2_Sub016] (Eterna round: R96, puzzle: Exclusion NG 2)	16.1	11.7	26.9	
GUGGGUUACAUGAGGAUCACCCAUGUAGAGUGGGAAGAGAGAUAGGAUAUGAUGUGAGAAUCAUAUCAGAAGGAUCGAGACUCG [AK ExNG3-2.3] (Eterna round: R96, puzzle: Exclusion NG 3)	512	158	354	

Sequence	apparent KD of MS2 coat protein (input ligand: FMN 200 uM) [nM]	apparent KD of MS2 coat protein [1] [nM]	apparent KD of MS2 coat protein (input ligand: none) [nM]	also measured
GUUGUUCGGUAGGAUAUGAAACAGCAGAGAUUGUCAGAAGGGCCGACAUGAGGAUCACCCAUGUGUGCGAAAGC [Eternabot (L1) Solution 26] (Eterna round: R97, puzzle: Exclusion 6)	35.1		50	
AUUUAGCAAGUUAGAUCCUACAUGAGGAUCACCCAUGUUGUUCGUCUUAUUUGAAGACAACACAAAAGUGUUGUCUU [Omei Mir OFFv1 B3] (Eterna round: R97, puzzle: Sensor, turn-off variant 1)	107		100	
CUGCUCCGUGUAGGAUAUGCAUACUCCCAUUAUGCAGAAGGACAUGAGGAUCACCCAUGUAUGUUAUUAUCAUGUGUUGCGUAC [Design 13] (Eterna round: R96, puzzle: Exclusion NG 1)	250	29.5	38.5	
GCGCACUAAGUGAGGAUAUCGAUUUUUUUUAGGAUCGAGAAGGCACAUGAGGAUCACCCAUGUUUGACGUGCGC [JR_BMOE4_Sub098] (puzzle: Brourd's mod of Exclusion 4)				apparent KD of MS2 coat protein [2]: 15 nM
ACAAGCUAAGUGCUCGGUCCGGGAGACACGUGAUCAGCGACAUGAGGAUCACCCAUGUAAUAGGAGCUUAAAACGUU [solution 46] (Eterna round: R96, puzzle: Sensor v2, turn-off variant 2)	15	20.1	19.7	
UUAUUAUAUGUAGGAUAUGCAUAUUAUUAUUGUGCAGAAGGACAUGAGGAUCACCCAUGUAUAUUAUUAUUAUAUAUUAUAUAU [Title] (Eterna round: R96, puzzle: Exclusion NG 1)		26.5		
GUGUAGAUAGGAUAUGCAAGAGUCUAGCGAAGCUAGAUUCUACAUGAGGAUCACCCAUGUAGAAGGGUCUACAC [Fiskers Ex 2 - 29] (puzzle: Exclusion 2)				apparent KD of MS2 coat protein [2]: 17.3 nM
AGUCGAAAGACAAAUAAAAACAUGAGGAUCACCCAUGUAAUGGGUGAAAACAAGCUCACCGUUCGUCUUAAAGAAAA [JL turnoff v1 57] (Eterna round: R96, puzzle: Sensor v2, turn-off variant)	607	40.7	302	
UUUUUGUCAGGAUAUGAGUAGUAGUACUAUUGUUUUAUUAUUUAGAAGGGACAUGAGGAUCACCCAUGUUUCUC [Bring Us a Shrubbery-01] (puzzle: Exclusion 4)				apparent KD of MS2 coat protein [2]: 14.4 nM
UGUGCGUAUGUGAGGAUAUGCUGGUCCUUGGAUCAGCAGAAGGCACAUGAGGAUCACCCAUGUGGUGUCGUACA [salish99_Bmod_Ex4_007] (puzzle: Brourd's mod of Exclusion 4)				apparent KD of MS2 coat protein [3]: 29.2 nM; apparent KD of MS2 coat protein [2]: 158 nM; apparent KD of MS2 coat protein [4]: 307 nM
ACAUUGGUAGUGAGGAUAUCGGUGUGAUAGAAUGCCGAGAAGGCACAUGAGGAUCACCCAUGUAAGAUUGGGCA [JR_BMEx4_Sub043] (Eterna round: R97, puzzle: Brourd's mod of Exclusion 4)	299		186	
CCCUCAAGCGAGGAUAUAAAUGCGCAUUCGCGGUUAGAAGGCGCUACAUGAGGAUCACCCAUGUAAUUGAAUGG [jl-ex6-4.52 ViennaUCT mod] (Eterna round: R97, puzzle: Exclusion 6)	117		58.7	
UAAAAGCGAGGAUAUACAUGAGGAUCACCCAUGUGAGGCGAAAAGCCUCGGGCCAUCAGUAGAAGGUGCAAAAC [Arcecela] (puzzle: Exclusion 3)				apparent KD of MS2 coat protein [3]: 79 nM; apparent KD of MS2 coat protein [2]: 68.9 nM; apparent KD of MS2 coat protein [4]: 112 nM
CAUUAUUAUCGAGGAUAUCCUAUUGAAAUUCUGGGAGAAGGCGGACUCAACAUGAGGAUCACCCAUGUGGGACGGAUGCUAGGA [salish99_exng1_r04_602] (Eterna round: R96, puzzle: Exclusion NG 1)		13.3		
UUGAGUCGGAAGGAUAUGCGAGCCGCCGGGUCAGCAGAAGGUCCGACAUGAGGAUCACCCAUGUUGGGCGAGGA [EX6 B.10] (Eterna round: R97, puzzle: Exclusion 6)	351		25.2	
GUCAGCUCGUGAGGAUAUACAUGAUAGAUCGAUUAAUUAAUUAAUUUAACAUGAGGAUCACCCAUGUAGAAGGUACGAGCUGAU [ENG2/1-C2] (Eterna round: R96, puzzle: Exclusion NG 2)		40.1		
AAGGGUACUUUCAGAACGACAUGAGGAUCACCCAUGUAGACUGAGGAUAUCUACUUCUAAGGACGGGAGAAGGCAGUGUAAUGU [Ex NG3 #72] (Eterna round: R96, puzzle: Exclusion NG 3)	11.4	10.7	13.5	
